Key:
[1] = biological target: Chlamydomonas reinhardtii ATG3, wild type (Chlamydomonas reinhardtii); experiment: non-reducing SDS-PAGE; purified ATG3 (about 2.5-3 ug) in 50 mM Tris-HCl pH 7.5, 25 °C, untreated or treated with DTTred, GSH, DTTox, H2O2 or Cu2+; stopped with βME-free loading buffer, 5 min at 65 °C; 12% or 15% gels, Coomassie; monomer against disulfide-linked dimer
[2] = biological target: the molecule itself; experiment: as above

Molecule | stoichiometry N [1] | stoichiometry N [2]
Chlamydomonas reinhardtii ATG3, wild type (enzyme) | 2 | 
Saccharomyces cerevisiae ATG3, wild type (enzyme, UniProt P40344 1-310, looked up, ATG3 (E2-like enzyme of the ATG8 conjugation system), Saccharomyces cerevisiae; catalytic Cys234; also called ScATG3; ScATG3^WT) MIRSTLSSWREYLTPITHKSTFLTTGQITPEEFVQAGDYLCHMFPTWKWNEESSDISYRDFLPKNKQFLIIRKVPCDKRAEQCVEVEGPDVIMKGFAEDGDEDDVLEYIGSETEHVQSTPAGGTKDSSIDDIDELIQDMEIKEEDENDDTEEFNAKGGLAKDMAQERYYDLYIAYSTSYRVPKMYIVGFNSNGSPLSPEQMFEDISADYRTKTATIEKLPFYKNSVLSVSIHPCKHANVMKILLDKVRVVRQRRRKELQEEQELDGVGDWEDLQDDIDDSLRVDQYLIVFLKFITSVTPSIQHDYTMEGW |  | 2
